Test results reported in paper PMC5001606.
Substitutions are numbered along the chain they refer to. Names may count otherwise.

Experiments:
Assay in all cases: MST
[1] = biological target: T1, HiNmlR C54A (Haemophilus influenzae Rd KW20, UniProt P44558 1-135, C54A)
T1 sequence: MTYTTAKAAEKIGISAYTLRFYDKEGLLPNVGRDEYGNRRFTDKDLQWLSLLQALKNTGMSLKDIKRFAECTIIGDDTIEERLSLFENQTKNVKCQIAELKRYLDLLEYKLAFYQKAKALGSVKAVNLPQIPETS

[2] = biological target: T2, HiNmlR C54A/C71A/C95A (Haemophilus influenzae Rd KW20, UniProt P44558 1-135, C54A;C71A;C95A)
T2 sequence: T1 sequence with C71A, C95A

[3] = biological target: T3, HiNmlR wild-type (Haemophilus influenzae Rd KW20, UniProt P44558 1-135)
T3 sequence: T1 sequence with A54C

[4] = biological target: T4, HiNmlR C71A/C95A (Haemophilus influenzae Rd KW20, UniProt P44558 1-135, C71A;C95A)
T4 sequence: T1 sequence with A54C, C71A, C95A

[5] = biological target: T5, HiNmlR C54A/C95A (Haemophilus influenzae Rd KW20, UniProt P44558 1-135, C54A;C95A)
T5 sequence: T1 sequence with C95A

B1: PadhC-estD/nmlR IR wt 24-bp (dsDNA)
DNA 1: CACTTTAGAGTTCACTCTAAAGCA
DNA 2: TGCTTTAGAGTGAACTCTAAAGTG
[1]
  Kd: 0.0911 ± 0.0156 µM
[2]
  Kd: 0.0553 ± 0.0053 µM
[3]
  Kd: 0.0252 ± 0.0023 µM
[4]
  Kd: 0.033 ± 0.0034 µM
[5]
  Kd: 0.0474 ± 0.0067 µM

B2: G5'C 24-bp (dsDNA)
DNA 1: CACTTTACAGTTCACTCTAAAGCA
DNA 2: TGCTTTAGAGTGAACTGTAAAGTG
[3]
  Kd: 0.245 ± 0.0261 µM

B3: C5G 24-bp (dsDNA)
DNA 1: CACTTTAGAGTTCACTGTAAAGCA
DNA 2: TGCTTTACAGTGAACTCTAAAGTG
[3]
  Kd: 0.252 ± 0.0174 µM

B4: G5'C/C5G 24-bp (dsDNA)
DNA 1: CACTTTACAGTTCACTGTAAAGCA
DNA 2: TGCTTTACAGTGAACTGTAAAGTG
[3]
  Kd: 4.69 ± 0.311 µM
